The values that follow come from PMC7618776, “Direct recruitment of Mis18 to interphase spindle pole bodies promotes CENP-A chromatin assembly” (Current biology : CB, 2023).

In this assay the target is T1, 6His-msfGFP-TEV-Mis18FL (S. pombe, UniProt Q9P802 1-194).
T1 construct: Mis18, S. pombe, full length (residues 1-194); Cloned into the vector pET His6 msfGFP TEV (9GFP, Addgene 48287); also called GFP-Mis18; 6His-GFP-Mis18FL; source: E. coli BL21 Gold, purified (HisTrap HP, SEC); not shown: msfGFP, N-terminal, kept
T1 sequence (looked up): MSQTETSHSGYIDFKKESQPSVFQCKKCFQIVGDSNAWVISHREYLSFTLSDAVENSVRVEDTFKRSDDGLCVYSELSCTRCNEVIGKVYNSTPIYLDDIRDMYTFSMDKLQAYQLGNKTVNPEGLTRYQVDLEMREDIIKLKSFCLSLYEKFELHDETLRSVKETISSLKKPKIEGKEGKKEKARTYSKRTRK
In words: pull-down; 6His-MBP-Sad1(2-167) or 6His-MBP on amylose resin mixed with candidate binding proteins, each protein at 5 μM; 20 mM HEPES pH 7.0, 150 mM NaCl, 1 mM TCEP, 0.01% Tween-20; 4°C 1 hr; Coomassie-stained SDS-PAGE. Conditions: both partners purified.

B1: 6His-MBP-Sad1(2-167) (domain or fragment, S. pombe, UniProt Q09825 2-167, looked up)
chain: FTNTPVGGKRERQNGAHPAWSTLGANSAQIHQNTADLASKMHKLRYTKIRSPPTRVSIESITPKQRFPAPNFEQAYHSNIRYEQEESDNEEFENVVKNGHEASTNVFYESDGDDEEFVNEEYENSIDEESDDEGYSLNEDTTATNASFRYPMNQRSTRKSQFYSSK
notes: Cloned into the vector pET-6His-MBP-TEV (9C, Addgene 48286) by LIC; also called MBP-Sad1-N; source: E. coli BL21-CodonPlus (DE3)-RIPL, purified (TALON resin); not shown: His6, N-terminal, kept; MBP, N-terminal, kept
Consider B1, for which the binding result is on record as “binds”.
